Experimental data: article PMC11655885, “Structural mechanism of CB1R binding to peripheral and biased inverse agonists” (Nature Communications, 2024)

Tests used:
CB1R-5M-PGS = CB1R-5M-PGS (Homo sapiens, UniProt P21554); assay: Analytical gel filtration test of CNB36 binding to CB1R-5M-PGS; conditions: purified CNB36
Protocol: For binding tests, 10 μM purified CNB36 was incubated for 1 hr with purified PGS or CB1R-5M-PGS (5 μM). The complex was then centrifuged at 21,130 × g for 15 min at 4 °C to remove large aggregates, and the supernatant was run on an analytical-grade Superdex 200 10/300 Increase column at 0.5 mL/min in CB1 gel filtration buffer. The presence or absence of binding of CNB36 to CB1R-5M-PGS or to PGS alone was assessed by SDS-PAGE analysis of peak fractions.

[1] = tested on: CB1R-5M-PGS over GPR55-PGS; assay: Analytical flow cytometry of yeast-displayed CNB36, CB1R-5M-PGS versus GPR55-PGS; assay type: binding
Protocol: Supplementary Figure 1. (A-H) Sel ecti on and bi ochemi cal characteri zati on of CNB36
(A) Overall strategy for nanobody selection and sequence of CNB36.
(B) FA C S sort of a yeast display nanobody library against Alexa647-labeled CB1-PGS […]
round of selection that gave rise to CNB36. The indicated gat e (P5) contains the highly fluorescent CB1-PGS single posit ive populat ion, which was then analyzed by sequencing of individual clones.
(C) Binding of CNB36 to CB1-PGS, read out by size exclusion chromatography and SDS-PA G E . […]
(D) Assessment of binding of CNB36 to PGS alone, as in C.
(E) Analytical flow cytometry comparing binding of CNB36-expressing yeast t o Alexa647-labeled CB1-PGS (Y-axis) versus FI TC-labeled GPR55-PGS (X-axis).
(F) Final sample used for cryo-EM grid preparat ion by size excusion chromatography and […]

Chain of CB1R-5M-PGS (P21554 with tags, fused parts or gaps): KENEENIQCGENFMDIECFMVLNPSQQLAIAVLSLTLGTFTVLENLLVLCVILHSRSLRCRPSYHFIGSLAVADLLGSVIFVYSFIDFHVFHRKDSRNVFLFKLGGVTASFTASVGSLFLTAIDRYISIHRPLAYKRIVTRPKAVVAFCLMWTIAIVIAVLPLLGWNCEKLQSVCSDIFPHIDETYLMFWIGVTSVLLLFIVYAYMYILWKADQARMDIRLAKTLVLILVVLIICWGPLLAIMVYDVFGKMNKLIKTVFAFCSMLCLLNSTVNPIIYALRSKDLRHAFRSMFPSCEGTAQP

B1: CNB36: nanobody selected from a yeast display library against the CB1R-5M-PGS fusion protein (antibody, V domains shown)
VH: QVQLQESGGGLVQAGGSLRLSCAASGTIFGPDVMGWYRQAPGKERELVAGISNGANTYYADSVKGRFTISRDNAKNTVYLQMNSLKPEDTAVYYCAAEVLDYTFAYLYHAYWGQGTQVTVSS
- complex formation with CB1R-5M-PGS by size exclusion chromatography (CB1R-5M-PGS): formed a stable complex
- specificity for purified CB1R-5M-PGS over GPR55-PGS by FACS [1]: high specificity
